One protein from patent US6998116 (Genentech, dated 2006) can be followed below.

This data set concerns the molecule itself. The data set can be described thus: self-association: chemical crosslinking (sulfo-NHS/EDC), SDS-PAGE and silver staining. As for the experimental part: Minor 48 kDa and 66 kDa bands were also observed, and probably represent soluble Apo-2 ligand homodimers and homotrimers. Chemical crosslinking of the purified $His10$-Apo-2 ligand by incubation with sulfo-NHS (5 mM) (Pierce Chemical) and EDC (Pierce Chemical) at 25 mM and 50 mM (FIG. 1D, lanes 1 and 2, respectively), shifted the protein into the 66 kDa band primarily.

B1: His10-Apo-2 ligand (purified soluble Apo-2 ligand residues 114-281 with N-terminal Met Gly His10 tag and enterokinase site) (ligand)
chain: MGHHHHHHHHHHSSGHIDDDDKHMVRERGPQRVAAHITGTRGRSNTLSSPNSKNEKALGRKINSWESSRSGHSFLSNLHLRNGELVIHEKGFYYIYSQTYFRFQEEIKENTKNDKQMVQYIYKYTSYPDPILLMKSARNSCWSKDAEYGLYSIYQGGIFELKENDRIFVSVTNEHLIDMDHEASFFGAFLVG
notes: Made in baculovirus-infected Sf9 cells, purified on Ni2+-NTA; also called His10-Apo-2 ECD
As for B1, the binding result is given as “binds”.
